Reference: IntAct's records for PubMed 26471729

B1: Antiviral innate immune response receptor RIG-I (Homo sapiens), O95786 (parent)
chain: MTTEQRRSLQAFQDYIRKTLDPTYILSYMAPWFREEEVQYIQAEKNNKGPMEAATLFLKFLLELQEEGWFRGFLDALDHAGYSGLYEAIESWDFKKIEKLEEYRLLLKRLQPEFKTRIIPTDIISDLSECLINQECEEILQICSTKGMMAGAEKLVECLLRSDKENWPKTLKLALEKERNKFSELWIVEKGIKDVETEDLEDKMETSDIQIFYQEDPECQNLSENSCPPSEVSDTNLYSPFKPRNYQLELALPAMKGKNTIICAPTGCGKTFVSLLICEHHLKKFPQGQKGKVVFFANQIPVYEQQKSVFSKYFERHGYRVTGISGATAENVPVEQIVENNDIIILTPQILVNNLKKGTIPSLSIFTLMIFDECHNTSKQHPYNMIMFNYLDQKLGGSSGPLPQVIGLTASVGVGDAKNTDEALDYICKLCASLDASVIATVKHNLEELEQVVYKPQKFFRKVESRISDKFKYIIAQLMRDTESLAKRICKDLENLSQIQNREFGTQKYEQWIVTVQKACMVFQMPDKDEESRICKALFLYTSHLRKYNDALIISEHARMKDALDYLKDFFSNVRAAGFDEIEQDLTQRFEEKLQELESVSRDPSNENPKLEDLCFILQEEYHLNPETITILFVKTRALVDALKNWIEGNPKLSFLKPGILTGRGKTNQNTGMTLPAQKCILDAFKASGDHNILIATSVADEGIDIAQCNLVILYEYVGNVIKMIQTRGRGRARGSKCFLLTSNAGVIEKEQINMYKEKMMNDSILRLQTWDEAVFREKILHIQTHEKFIRDSQEKPKPVPDKENKKLLCRKCKALACYTADVRVIEECHYTVLGDAFKECFVSRPHPKPKQFSSFEKRAKIFCARQNCSHDWGIHVKYKTFEIPVIKIESFVVEDIATGVQTLYSKWKDFHFEKIPFDPAEMSK
partner: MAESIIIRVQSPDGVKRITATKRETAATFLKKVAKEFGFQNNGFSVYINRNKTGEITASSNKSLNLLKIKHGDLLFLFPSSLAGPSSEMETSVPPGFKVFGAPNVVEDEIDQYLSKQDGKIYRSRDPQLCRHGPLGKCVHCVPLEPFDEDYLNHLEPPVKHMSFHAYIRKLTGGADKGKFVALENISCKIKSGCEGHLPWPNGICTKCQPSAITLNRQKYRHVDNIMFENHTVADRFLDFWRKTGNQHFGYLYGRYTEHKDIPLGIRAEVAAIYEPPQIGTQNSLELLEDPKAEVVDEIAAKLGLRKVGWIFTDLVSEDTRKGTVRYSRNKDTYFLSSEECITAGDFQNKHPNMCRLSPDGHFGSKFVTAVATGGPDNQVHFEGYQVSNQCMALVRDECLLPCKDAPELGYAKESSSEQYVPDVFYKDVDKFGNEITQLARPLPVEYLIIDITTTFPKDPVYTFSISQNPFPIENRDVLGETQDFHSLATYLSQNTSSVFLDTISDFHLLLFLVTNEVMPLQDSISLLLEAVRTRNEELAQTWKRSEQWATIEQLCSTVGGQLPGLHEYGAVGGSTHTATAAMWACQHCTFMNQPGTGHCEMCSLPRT

Variants of: B1
Details: with npl4_human NPLOC4, Q8TAT6

Question: How did the “effect of a mutation on the interaction” value turn out when K172R was run?
Answer: Its value is “decreasing interaction strength”.

Question: K181R was tested. Which “effect of a mutation on the interaction” value did it give?
Answer: Its value is “with no effect”.

Question: How did the “effect of a mutation on the interaction” value turn out when T170E;K172R was run?
Answer: The value was “decreasing interaction strength”.
